Reference: patent US20220259593A1, “CONTROL OF MAMMALIAN GENE DOSAGE USING CRISPR” (The Regents of the University of California, priority 2019, published 2022)

System: K562 CRISPRi cells
Test: Constant region variant library pooled growth screen, K562
Type: cell-based, human
Details: sgRNA constant region variants; activity relative to the original, un-modified constant region cr995
Summary of the method: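 Growth screens in K562 CRISPRi cells were harvested 4-8 days post-selection at >2000× library coverage. Each variant's phenotype was referenced to the unmodified constant region with the same targeting sequence.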

Row | Molecule | Mean relative activity
1 | cr535 (nucleic acid, listed as DNA, chemistry not fully specified) guide: GTTTAAGAGCTAAGCTGGAAACAGCATAGCAAGTTTAAATAAGGCTAGTCAGTTATCAACTTGAAAAAGTGGCACCGAGTCGGTGCT | −0.0004281
2 | cr058 (nucleic acid, listed as DNA, chemistry not fully specified) guide: GTTGCAGAGCTAAGCTGGAAACAGCATAGCAAGTTTAAATAAGGCTAGTCCGTTATCAACTTGAAAAAGTGGCACCGAGTCGGTGCT | −0.003151
3 | cr326 (nucleic acid, listed as DNA, chemistry not fully specified) guide: GTTTAAGAGCTAAGCTGGAAACAGCATAGCAAGCTTAAATAACGCTAGTCGGTTATCAACTTGAAAAAGTGGCACCGAGTCGGTGCT | −0.001062
4 | cr034 (nucleic acid, listed as DNA, chemistry not fully specified) guide: GCATAAGAGCTAAGCTGGAAACAGCATAGCAAGTTTAAATAAGGCTAGTCCGTTATCAACTTGAAAAAGTGGCACCGAGTCGGTGCT | −0.007191
5 | cr065 (nucleic acid, listed as DNA, chemistry not fully specified) guide: GTATACGAGCTAAGCTGGAAACAGCATAGCAAGTTTAAATAAGGCTAGTCCGTTATCAACTTGAAAAAGTGGCACCGAGTCGGTGCT | −0.003148
6 | cr233 (nucleic acid, listed as DNA, chemistry not fully specified) guide: GTTTAAGAGCTAAGCTGGAAACAGCATAGCAACTTTAAATAAGGCTAGTCCGTTATCAACTTGAAAAAGTGGCACCCAGTGGGTGCT | −0.003511
7 | cr053 (nucleic acid, listed as DNA, chemistry not fully specified) guide: GATTCAGAGCTAAGCTGGAAACAGCATAGCAAGTTTAAATAAGGCTAGTCCGTTATCAACTTGAAAAAGTGGCACCGAGTCGGTGCT | −0.003704
8 | cr036 (nucleic acid, listed as DNA, chemistry not fully specified) guide: GCTAAAGAGCTAAGCTGGAAACAGCATAGCAAGTTTAAATAAGGCTAGTCCGTTATCAACTTGAAAAAGTGGCACCGAGTCGGTGCT | −0.005679
9 | cr595 (nucleic acid, listed as DNA, chemistry not fully specified) guide: GTTTAAGAGCTAAGCTGGAAACAGCATAGCAAGTTTAAATAACGCTAGTCCGTTATCAACTTGAAAAAGTGGCACCGAGTCGGTGCT | −0.002984
10 | cr383 (nucleic acid, listed as DNA, chemistry not fully specified) guide: GTTTAAGAGCTAAGCTGGAAACAGCATAGCAACTTTAAATAAGGCTAGTCCGTTATCAACTTGAAAAAGTGGCACCTAGTAGGTGCT | −0.005505
11 | cr564 (nucleic acid, listed as DNA, chemistry not fully specified) guide: GTTTAAGAGCTAAGCTGGAAACAGCATAGCAAGGTTAAATAAGGCTAGTCCGTTATCAACTTGAAAAAGTGGCAGCGAGTCGCTGCT | −0.001952
12 | cr847 (nucleic acid, listed as DNA, chemistry not fully specified) guide: GTTTAAGAGCTAAGCTGGAAACAGCATAGCAAGCTTAAATAAGGCTAGTCCGTTATCAACTTGAAAAAGTGGCACCCAGTGGGTGCT | −0.002682
13 | cr828 (nucleic acid, listed as DNA, chemistry not fully specified) guide: GTTTAAGAGCTAAGCTGGAAACAGCATAGCAGGTTTAAATAAGGCTAGTCCGTTATCAACTTGAAAAAGTGGCACCGAGTCGGTGCT | 1.028
14 | cr637 (nucleic acid, listed as DNA, chemistry not fully specified) guide: GTTTAAGAGCTAAGCTGGAAACAGCATATCAAGATTAAATAAGGCTAGTCCGTTATCAACTTGAGAAAGTGGCACCGAGTCGGTGCT | −0.001265
15 | cr751 (nucleic acid, listed as DNA, chemistry not fully specified) guide: GTTTAAGAGCTAAGCTGGAAACAGCATCGCAACTTTAAATAAGGCTAGTCCTTTATCAACTTGAAAAAGTGGCACCGAGTCGGTGCT | −0.000557
16 | cr817 (nucleic acid, listed as DNA, chemistry not fully specified) guide: GTTTAAGAGCTAAGCTGGAAACAGCATAGCAAGGTTAAATAGGGCTAGTCCGTTATCAACTTGATAAAGTGGCACCGAGTCGGTGCT | −0.002514
17 | cr329 (nucleic acid, listed as DNA, chemistry not fully specified) guide: GTTTAAGAGCTAAGCTGGAAACAGCATAGCAACTTTAAATAAAGCTAGTCTGTTATCAACTTGAAAAAGTGGCACCGAGTCGGTGCT | −0.007607
18 | cr033 (nucleic acid, listed as DNA, chemistry not fully specified) guide: GTTAAAAAGCTAAGCTGGAAACAGCATAGCAAGTTTAAATAAGGCTAGTCCGTTATCAACTTGAAAAAGTGGCACCGAGTCGGTGCT | −0.004656
19 | cr802 (nucleic acid, listed as DNA, chemistry not fully specified) guide: GTTTAAGAGCTAAGCTGGAAACAGCATAGCAAGTTTAAATAACGCTAGTCGGTTATCAAGTTGAAAAACTGGCAGCGAGTCGCTGCT | −0.005377
20 | cr882 (nucleic acid, listed as DNA, chemistry not fully specified) guide: GTTTAAGAGCTAAGCTGGAAACAGCATAGCAAGTTTAAATAAGGCTAGTCCGTTATCAACTTCAAAAAGTGGCACCGAGTCGGTGCT | 1.027
21 | cr122 (nucleic acid, listed as DNA, chemistry not fully specified) guide: GTTTAAGAGCTAAGCTGGAAACAGCATAGCAACTTTAAATAAGGCTAGTCCGTTATTAACTTGATAAAGTGGCACCGAGTCGGTGCT | −0.003408
22 | cr921 (nucleic acid, listed as DNA, chemistry not fully specified) guide: GTTTAAGAGCTAAGCTGGAAACAGCATAGCAAAGTTAAATAAGGCTAGTCCGTTATCAACTTGAAAAAGTGGCACCGAGTCGGTGCT | −0.002203
23 | cr894 (nucleic acid, listed as DNA, chemistry not fully specified) guide: GTTTAAGAGCTAAGCTGGAAACAGCATAGCAACTTTAAATAAGGCTAGTCCGTTATCAATTTGAAAAAATGGCACCGAGTCGGTGCT | −0.003408
24 | cr178 (nucleic acid, listed as DNA, chemistry not fully specified) guide: GTTTAAGAGCTAAGCTGGAAACAGCATAGCAATTTTAAATGAGGCTAGTCCGTTATCGACTTGAAAAAGTGGCACCGAGTCGGTGCT | −0.0008744
25 | cr235 (nucleic acid, listed as DNA, chemistry not fully specified) guide: GTTTAAGAGCTAAGCTGGAAACAGCATAGCAAGTTTAAATAAGGCTAGTCCGTTATCAACATGAGAATGTGGCACCGAGTCGGTGCT | 1.027
26 | cr673 (nucleic acid, listed as DNA, chemistry not fully specified) guide: GTTTAAGAGCTAAGCTGGAAACAGCATAGCAACTTTAAATAAGGCTAGTCCGTTATCAACTTGAAAAAGTGGCACCGTGTCGGTGCT | −0.005072
27 | cr686 (nucleic acid, listed as DNA, chemistry not fully specified) guide: GTTTAAGAGCTAAGCTGGAAACAGCATAGCAACTTTAAATAAGGCTAGTCCGTTATCAACTTGAAAAAGTGGCACCGAGACGGTGCT | −0.004019
28 | cr179 (nucleic acid, listed as DNA, chemistry not fully specified) guide: GTTTAAGAGCTAAGCTGGAAACAGCATAGCAAGGTTAAATAAGGCTAGTCCGTTATCAACTTGAAAAAGTGGCACTGAGTCAGTGCT | −0.004493
29 | cr039 (nucleic acid, listed as DNA, chemistry not fully specified) guide: GATTATGAGCTAAGCTGGAAACAGCATAGCAAGTTTAAATAAGGCTAGTCCGTTATCAACTTGAAAAAGTGGCACCGAGTCGGTGCT | −0.0006181
30 | cr589 (nucleic acid, listed as DNA, chemistry not fully specified) guide: GTTTAAGAGCTAAGCTGGAAACAGCATAGCAAGTTTAAATAATGATATTCAGTTATCAACTTGAAAAAGTGGCACCGAGTCGGTGCT | −0.005108
